From patent publication US20100234283A1

T1: KDR-Fc (R&D System), P35968
T1 chain: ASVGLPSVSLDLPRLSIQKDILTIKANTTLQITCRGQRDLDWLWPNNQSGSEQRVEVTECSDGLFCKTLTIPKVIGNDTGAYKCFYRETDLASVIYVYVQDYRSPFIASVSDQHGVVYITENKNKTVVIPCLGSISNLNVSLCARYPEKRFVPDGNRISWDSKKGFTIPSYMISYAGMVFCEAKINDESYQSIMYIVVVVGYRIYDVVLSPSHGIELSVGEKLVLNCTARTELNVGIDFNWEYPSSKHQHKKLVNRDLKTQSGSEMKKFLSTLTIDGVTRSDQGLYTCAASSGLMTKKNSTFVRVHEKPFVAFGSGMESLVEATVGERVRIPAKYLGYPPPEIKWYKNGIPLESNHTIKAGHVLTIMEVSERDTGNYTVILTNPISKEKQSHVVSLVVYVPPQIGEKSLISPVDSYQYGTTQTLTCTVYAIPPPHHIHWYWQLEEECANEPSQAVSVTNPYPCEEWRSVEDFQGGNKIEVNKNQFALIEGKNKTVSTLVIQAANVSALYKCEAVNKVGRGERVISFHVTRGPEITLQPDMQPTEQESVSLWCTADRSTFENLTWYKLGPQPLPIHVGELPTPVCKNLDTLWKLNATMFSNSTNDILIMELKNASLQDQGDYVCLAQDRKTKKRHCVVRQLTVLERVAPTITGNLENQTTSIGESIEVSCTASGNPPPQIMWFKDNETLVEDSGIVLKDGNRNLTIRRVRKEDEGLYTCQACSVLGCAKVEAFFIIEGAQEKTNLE


Columns and labels:
[1] = target: VEGFR-2 on HUVEC and 293/KDR cells (human), P35968; assay: cell-based or functional assay
[2] = target: T1, KDR-Fc (R&D System), P35968; assay: SPR (BIAcore 3000), peptide on CM5 chip, KDR-Fc injected, 1:1 Langmuir fit

| inhibition of HUVEC migration (scratch wound assay, 50 ng/ml rhVEGF) [1] [%] | Kd [2] [nM] | Binder |
| --- | --- | --- |
| 50 | 49 | ITMQCGIHQGQHPKIMICEMSF (modifications not checked) [VEGF-P3(NC)] |
| 50 | 45 | ITMQIMRIKPHQGQHIGEMSF (modifications not checked) [VEGF 102-122] |
| 50 | 11 | ITMQCGIHQGQHPKIMICEMSF (modifications not checked) [VEGF-P3(CYC)] |
